Experiment [1] addresses H3N2流感病毒血凝素蛋白 (A/Texas/50/2012) (H3N2 influenza A virus (A/Texas/50/2012)). Briefly: indirect ELISA on coated H3N2 hemagglutinin, ascites.
Experiment [2] shares this target. As to the kind of experiment: indirect ELISA on coated H3N2 hemagglutinin, hybridoma culture supernatant. (An ELISA detects its analyte on a solid surface through an enzyme-linked reagent.)

B1: 抗H3N2流感病毒血凝素蛋白单克隆抗体ZJU32-01 (antibody, V domains shown)
VH: QVQLQQSGAELMKPGASVKISCKATGYIFSSYWIEWVKQRPGHGLEWIGEILPGSGRTNYKEIFKGKATFTADTSSNTAYMQLSSLTSEDSAVYYCARTRTTGSSDWGQGTTLTVSS
VL: DVLMTQTPLSLPVSLGDQASISCRSSQTTVHSNGNTYLEWYLQKPGQSPKLLIYKVSNRFFGVPDRFSGSGSGTDFTLKISRVEAEDLGVYYCFQGSHVPYTFGGGTKLEIK
With B1, the 效价 (ELISA titer) (dilution (1:x)) in experiment [1] worked out at 2048; in experiment [2] it was 64.

The values are drawn from patent publication CN114349852A.
